Test results as given in patent publication US20100260775A1 (Pfizer, published 2010).
Numbering of substitutions follows the chain as printed. In names and notes the source's numbering stands. Like-named read-outs stand apart in the source and are kept apart here.

B1: 3C (Fab) (Fab, V domains shown)
VH: QVQLQESGPGLVKPSETLSLTCTVSGFSLIGYDLNWIRQPPGKGLEWIGIIWGDGTTDYNSAVKSRVTISKDTSKNQFSLKLSSVTAADTAVYYCARGGYWYATSYYFDYWGQGTLVTVS
VL: DIQMTQSPSSLSASVGDRVTITCRASQSISNNLNWYQQKPGKAPKLLIYYTSRFHSGVPSRFSGSGSGTDFTFTISSLQPEDIATYYCQQERTLPYTFGQGTKLEIKR
B2: H19-L129 (Fab, V domains shown)
VH: B1 VH with W101Y, A103G
VL: B1 VL with E91S, R92K
B3: antibody E3 (Fab) (Fab, V domains shown)
VH: B1 VH
VL: B1 VL with R92H
B4: 8L2-6D5 (CDR-grafted antibody with framework mutation V71K) (Fab, V domains shown)
VH: B1 VH with L34I, I50M, V63L, W101Y, A103G
VL: B1 VL with S28D, N32H, T51I, E91S, R92K

Experiments:
Assay in all cases: cell-based or functional assay
rat NGF [1] = target: T1, rat NGF (rat, UniProt P25427 122-241, limits assumed)
human NGF = human NGF (human, UniProt P01138 122-241, limits assumed)
rat NGF [2] = target: T1, rat NGF; remark: listed apart in the source
rat NGF [3] = target: T1, rat NGF; remark: listed apart in the source

T1 sequence (P25427 122-241 limits assumed): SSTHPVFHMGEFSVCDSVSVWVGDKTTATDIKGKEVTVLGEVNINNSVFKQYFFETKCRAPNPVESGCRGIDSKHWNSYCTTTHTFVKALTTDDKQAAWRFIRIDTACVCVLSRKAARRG
Chain of human NGF (P01138 122-241 limits assumed): as the sequence (P25427 122-241 limits assumed) above, with T3S, V6I, M9R, T37M, A60D, E65D, T92M, D94G, A117V, G120A counted along it

| Molecule | IC50, inhibition of rat NGF-dependent survival of mouse E13.5 trigeminal neurons, 1.5 pM NGF (rat NGF [1]) | IC50, inhibition of rat NGF-dependent survival of mouse E13.5 trigeminal neurons, 15 pM NGF (rat NGF [1]) | IC50, inhibition of human NGF-dependent survival of mouse E13.5 trigeminal neurons, 1.5 pM NGF (human NGF) | IC50, inhibition of human NGF-dependent survival of mouse E13.5 trigeminal neurons, 15 pM NGF (human NGF) | IC50, inhibition of rat NGF-dependent survival of mouse E13.5 trigeminal neurons, 1.5 pM NGF (rat NGF [2]) | IC50, inhibition of rat NGF-dependent survival of mouse E13.5 trigeminal neurons, 15 pM NGF (rat NGF [2]) | IC50, inhibition of NGF-dependent survival of mouse E13.5 trigeminal neurons, 15 pM rat NGF (rat NGF [3]) |
| --- | --- | --- | --- | --- | --- | --- | --- |
| mouse antibody 911 (Fab) | 34.6 pM | 161 pM | 63.5 pM | 322 pM |  |  |  |
| B1 |  |  | 5.6 pM | 80.9 pM | 6 pM | 31.6 pM |  |
| B2 |  |  | 9.6 pM | 60.1 pM | 6 pM | 31 pM |  |
| B3 |  |  | < 1.2 pM | < 21 pM | < 1.3 pM | < 8.3 pM | ~31.6 pM |
| B4 |  |  | 462 pM | 1580 pM | 169 pM | 730 pM |  |
